Reference: patent US20250043019A1 (Janssen / Centocor, published 2025)

Columns and labels:
[1] = target: T1, human CD79b on the cell surface (human, UniProt P40259 29-229); assay: cell-based or functional assay
T1 sequence: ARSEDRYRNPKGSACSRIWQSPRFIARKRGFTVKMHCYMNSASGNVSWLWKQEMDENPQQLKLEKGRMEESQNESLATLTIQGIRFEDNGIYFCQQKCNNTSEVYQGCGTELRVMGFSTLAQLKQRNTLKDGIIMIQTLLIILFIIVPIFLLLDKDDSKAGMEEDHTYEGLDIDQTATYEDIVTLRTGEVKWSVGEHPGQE

[2] = target: T2, human CD20 on the cell surface (human, UniProt P11836 1-297); assay: cell-based or functional assay
T2 sequence (looked up): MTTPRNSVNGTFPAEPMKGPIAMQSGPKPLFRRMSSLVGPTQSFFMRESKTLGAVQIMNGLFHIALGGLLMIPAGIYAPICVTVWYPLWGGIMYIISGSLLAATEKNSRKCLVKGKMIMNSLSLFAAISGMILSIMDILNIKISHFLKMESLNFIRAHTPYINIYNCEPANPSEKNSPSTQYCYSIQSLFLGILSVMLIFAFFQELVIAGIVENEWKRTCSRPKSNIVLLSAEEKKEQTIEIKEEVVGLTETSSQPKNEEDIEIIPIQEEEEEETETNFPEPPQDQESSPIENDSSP

[3] = target: T1, human CD79b on the cell surface; assay: cell-based or functional assay; remark: listed apart in the source
[4] = target: T1, human CD79b on the cell surface; assay: flow cytometry, HBL-1 cells, 1 h 37 C
Description: (§1) All cells were washed with BD stain buffer (BD Biosciences; Cat #554657), centrifuged at 1200 RPM for 3 minutes, with supernatant discarded. Cells were then stained for 20 minutes at 4° C. with BD stain buffer containing AlexaFluor 647 labeled anti-human IgG secondary antibody (Jackson Immuno; Cat #109-606-098) at a 1:200 dilution along with Aqua Fixable Live/Dead stain (Invitrogen; Cat #L34957) at a 1:400 dilution. All cells were washed with BD stain buffer (BD Biosciences; Cat #554657), centrifuged at 1200 RPM for 3 mins, with supernatant discarded. Cells were analyzed using Intellicyt (Sartorius) flow cytometer and mean fluorescent intensity (MFI) was generated using Forcyt software (Sartorius). MFI was graphed and EC50 values generated using GraphPad PRISM v.8. Dose response curves were generated by transforming the x axis values using the formula […]. Data was then graphed using non-linear regression curve fit analysis “log(agonist) vs. response-variable slope (four parameter)”.

[5] = target: T1, human CD79b on the cell surface; assay: cell-based or functional assay; remark: listed apart in the source
[6] = target: T3, cynomolgus monkey CD79b antigen (cynomolgus monkey); assay: SPR Biacore 8k, cyno CD79b injected up to 3000 nM
T3 construct: also called cyno CD79b; CD9W1.001
Description: (§2) General Protocol for SPR Affinity Assessment: Affinity assessment of the bispecific trispecific constructs against human CD79b were measure using recombinantly expressed extracellular domain of CD79b short and long isoforms (CD9W7.001 and CD9W8.001, respectively) by Surface Plasmon Resonance (SPR) using a Biacore 8k SPR system (Biacore) at 25° C. in HBSP+ buffer. Cross-reactivity of the same antibody panel was also assessed against cyno and mouse antigens (CD9W1.001 and CD9W105.001, respectively). Briefly, a C1 sensor chip was immobilized with anti-human Fc (target immobilization levels of >400 RU) using vendor recommended amino coupling protocol. […] The association and dissociation phases were measured for 2 or 3 minutes and 30 minutes, respectively.
(§3) The raw binding sensorgrams were processed using Biacore Insight software (Biacore) by double-referencing and the processed sensorgrams were analyzed for cross-reactivity and fitted to a 1:1 Langmuir model to obtain on-rates, off-rates and affinities.

[7] = target: T1, human CD79b on the cell surface; assay: cell-based or functional assay; remark: listed apart in the source
[8] = target: T1, human CD79b on the cell surface; assay: cell-based or functional assay; remark: listed apart in the source
[9] = target: T1, human CD79b on the cell surface; assay: cell-based or functional assay; remark: listed apart in the source
[10] = target: T1, human CD79b on the cell surface; assay: cell-based or functional assay; remark: listed apart in the source
[11] = target: T1, human CD79b on the cell surface; assay: flow cytometry, Carnaval cells, 1 h 37 C; control row of Table 10, same value as Table 8
Description: as §1

[12] = target: T1, human CD79b on the cell surface; assay: flow cytometry, HBL-1 cells, 1 h 37 C; control row of Table 10, same value as Table 8
Description: as §1

[13] = target: T4, recombinant extracellular domain of human CD79b, short isoform (human, UniProt P40259 29-159); assay: SPR Biacore 8k, antibody captured by anti-Fc, 25 C
T4 chain: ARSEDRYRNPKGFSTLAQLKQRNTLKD
Description: as §2, §3

[14] = target: T5, recombinant extracellular domain of human CD79b, long isoform (human, UniProt P40259 29-159); assay: SPR Biacore 8k, antibody captured by anti-Fc, 25 C
T5 construct: also called hu CD79b long
T5 sequence: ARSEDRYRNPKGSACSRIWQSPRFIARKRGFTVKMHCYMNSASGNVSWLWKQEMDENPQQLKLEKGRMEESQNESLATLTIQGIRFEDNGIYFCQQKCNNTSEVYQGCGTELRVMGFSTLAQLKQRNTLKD
Description: as §2, §3

[15] = target: T1, human CD79b on the cell surface; assay: flow cytometry, Carnaval cells, 1 h 37 C
Description: as §1

[16] = target: T1, human CD79b on the cell surface; assay: cell-based or functional assay; remark: listed apart in the source

B1: C923B169 CD79bxCD20xCD3 trispecific antibody (CD9B374 Fab x C20B648 LH scFv x CD3B2030 N106A LH scFv) (other)
heavy: QVQLQESGPGLVKPSETLSLTCSVSGASISSFYWSWIRQPADEGLEWIGRISPSGKTNYIPSLKSRIIMSLDASKNQFSLRLNSVTAADTAMYYCARGEYSGTYSYSFDVWGQGTMVTVSSASTKGPSVFPLAPSSKSTSGGTAALGCLVKDYFPEPVTVSWNSGALTSGVHTFPAVLQSSGLYSLSSVVTVPSSSLGTQTYICNVNHKPSNTKVDKKVEPKSCDKTHTCPPCPAPEAAGGPSVFLFPPKPKDTLMISRTPEVTCVVVSVSHEDPEVKFNWYVDGVEVHNAKTKPREEQYNSTYRVVSVLTVLHQDWLNGKEYKCKVSNKALPAPIEKTISKAKGQPREPQVYTLPPSREEMTKNQVSLSCAVKGFYPSDIAVEWESNGQPENNYKTTPPVLDSDGSFFLVSKLTVDKSRWQQGNVFSCSVMHEALHNRFTQKSLSLSPGK
light: DIVMTQSPLSLSVTPGEPASISCRSSESLLDSEDGNTYLDWFLQKPGQSPQLLIYTLSYRASGVPDRFSGSGSDTDFTLHISSLEAEDVGLYYCMQRMEFPLTFGQGTKVEIKRTVAAPSVFIFPPSDEQLKSGTASVVCLLNNFYPREAKVQWKVDNALQSGNSQESVTEQDSKDSTYSLSSTLTLSKADYEKHKVYACEVTHQGLSSPVTKSFNRGEC
chain: EIVLTQSPATLSASPGERVTLSCSASSSVSYMNWYQQKPGQAPRRWIYDSSKLASGVPARFSGSGSGRDYTLTISSLEPEDFAVYYCQQWSRNPPTFGGGTKVEIKGGSEGKSSGSGSESKSTGGSQVQLVQSGAEVKKPGSSVKVSCKASGYTFTRSTMHWVKQAPGQGLEWIGYINPSSAYTNYNQKFQGRVTLTADKSTSTAYMELSSLRSEDTAVYYCASPQVHYDYAGFPYWGQGTLVTVSSEPKSSDKTHTCPPCPAPEAAGGPSVFLFPPKPKDTLMISRTPEVTCVVVSVSHEDPEVKFNWYVDGVEVHNAKTKPREEQYNSTYRVVSVLTVLHQDWLNGKEYKCKVSNKALPAPIEKTISKAKGQPREPQVYTLPPSREEMTKNQVSLWCLVKGFYPSDIAVEWESNGQPENNYKTTPPVLDSDGSFFLYSKLTVDKSRWQQGNVFSCSVMHEALHNHYTQKSLSLSPGKGGGGSGGGGSGGGGSGGGGSEIVLTQSPATLSLSPGERATLSCRASLSVSSMHWYQQKPGQAPRLLIYATSNLASGIPARFSGSGSGTDFTLTISSLEPEDFAVYYCQQWIFNPPTFGGGTKVEIKGGSEGKSSGSGSESKSTGGSQVQLVQSGAEVKKPGSSVKVSCKASGYTFSSYNMHWVRQAPGQGLEWMGAIYPGAGDTSYAQKFQGRVTITADESTSTAYMELSSLRSEDTAVYYCARSNYYGSSGWYFDVWGKGTTVTVSS
- EC50, decrease of IL-10 secretion by CD79b mutant OCI-Ly10 cells (MSD assay) [1]: 15.4 nM
- EC50, long-term Incucyte cytotoxicity, K562 CD20 [2]: 4.08 nM
- EC50, long-term Incucyte cytotoxicity, K562 CD79b [3]: 1.04 nM

B2: 79C3B646 CD79bxCD3 bispecific antibody (bispecific antibody, human IgG1, lambda, L234A L235A)
heavy: QVQLQQSGPGLVKPSQTLSLTCAISGDSVSSNSATWNWIRQSPSRGLEWLGRTYYRSKWYNDYTVSVKSRITINPDTSKNQFSLQLNSVTPEDTAVYYCTRVDIAFDYWGQGTLVTVSSASTKGPSVFPLAPSSKSTSGGTAALGCLVKDYFPEPVTVSWNSGALTSGVHTFPAVLQSSGLYSLSSVVTVPSSSLGTQTYICNVNHKPSNTKVDKKVEPKSCDKTHTCPPCPAPEAAGGPSVFLFPPKPKDTLMISRTPEVTCVVVSVSHEDPEVKFNWYVDGVEVHNAKTKPREEQYNSTYRVVSVLTVLHQDWLNGKEYKCKVSNKALPAPIEKTISKAKGQPREPQVYTLPPSREEMTKNQVSLSCAVKGFYPSDIAVEWESNGQPENNYKTTPPVLDSDGSFFLVSKLTVDKSRWQQGNVFSCSVMHEALHNRFTQKSLSLSPGK
light: QTVVTQPPSVSEAPRQRVTISCSGSSSNIGNHGVNWYQQLPGKAPKLLIYNDDLLPSGVSDRFSGSTSGTSGSLAISGLQSEDEADYYCAAWDDSLNGVVFGGGTKLTVLGQPKAAPSVTLFPPSSEELQANKATLVCLISDFYPGAVTVAWKADSSPVKAGVETTTPSKQSNNKYAASSYLSLTPEQWKSHRSYSCQVTHEGSTVEKTVAPTECS
chain: EIVLTQSPATLSASPGERVTLSCSASSSVSYMNWYQQKPGQAPRRWIYDSSKLASGVPARFSGSGSGRDYTLTISSLEPEDFAVYYCQQWSRNPPTFGGGTKVEIKGGSEGKSSGSGSESKSTGGSQVQLVQSGAEVKKPGSSVKVSCKASGYTFTRSTMHWVKQAPGQGLEWIGYINPSSAYTNYNQKFQGRVTLTADKSTSTAYMELSSLRSEDTAVYYCASPQVHYDYAGFPYWGQGTLVTVSSEPKSSDKTHTCPPCPAPEAAGGPSVFLFPPKPKDTLMISRTPEVTCVVVSVSHEDPEVKFNWYVDGVEVHNAKTKPREEQYNSTYRVVSVLTVLHQDWLNGKEYKCKVSNKALPAPIEKTISKAKGQPREPQVYTLPPSREEMTKNQVSLWCLVKGFYPSDIAVEWESNGQPENNYKTTPPVLDSDGSFFLYSKLTVDKSRWQQGNVFSCSVMHEALHNHYTQKSLSLSPGK
notes: IgG1 bispecific; CD79b Fab arm plus CD3 scFv-Fc arm; also called 79C3B646 bsAb; CD9B330-N31S x CD3B2030-N106A
- EC50 [4]: 97 nM
- IC50, CARNAVAL killing, 72 h (FACS) [5]: 0.29 nM
- IC50, HBL-1 killing, 72 h (FACS) [5]: 0.73 nM
- IC50, OCI-LY10 killing, 72 h (FACS) [5]: > 100 nM
- Kd [6]: > 3000 nM
- IC50, T-cell killing of OCI-Ly10 (Incucyte) [7]: 18.3 nM
- IC50, Daudi killing (Incucyte) [8]: 0.597 nM
- Cmax (maximum cytotoxicity), donor 1 [9]: 9%
- Cmax (maximum cytotoxicity), donor 2 [9]: 14%
- Cmax (maximum cytotoxicity), donor 3 [9]: 35%
- EC50, autologous B-cell depletion, donor 1 [9]: 40 nM
- EC50, autologous B-cell depletion, donor 2 [9]: 6 nM
- EC50, autologous B-cell depletion, donor 3 [9]: 8 nM
- IC50, T-cell killing of HBL-1 (Incucyte) [10]: 0.257 nM
- EC50 [11]: 44 nM
- EC50 [12]: 97 nM
- Kd [13]: 0.58 nM
- Kd [14]: 0.022 nM
- EC50 [15]: 44 nM
- IC50, CARNAVAL killing (Incucyte) [16]: 1.39 nM
